According to the supplement of paper PMC12042874:
± gives the uncertainty stated by the source.

Test: amyloid nucleation score (Sup35N fusion, yeast selection) (log enrichment); library NNK3; higher = more nucleation; inactive = no reads after selection
How it was run: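 Sup35N was fused to peptides of 20 random codons and expressed in psi-negative yeast, which were induced with 100 μM copper sulfate for 24 hours and then grown on medium lacking adenine and uracil for 7 days at 30°C. Plasmid inserts from input and output were sequenced on Illumina. The nucleation score is the DiMSum log enrichment of output over input reads, centred on the mode score of non-aggregating sequences. Sequences with under 100 input reads were left out, and random libraries had three technical output replicates.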

| Substance | amyloid nucleation score |
| --- | --- |
| CGQFVEISKYG | inactive |
| CGSRLYRCETAMMVLRIRSG | inactive |
| CGTTVGFLMLYLSCIRWL | inactive |
| CGYEVIGNIFGM | inactive |
| CHAIASVVSEYNGPLVVTVI | inactive |
| CIAMKMWKNIRRWWSGRVAG | inactive |
| CIGFGCLLIVHLPIYACPWC | inactive |
| CIHTPDRCKVCNGITFDGRC | inactive |
| CIQLVVT | inactive |
| CIQSMRH | inactive |
| CIRICNISFFL | 2.71 ± 0.075 |
| CISLSRL | inactive |
| CISTVIEKMLVIYEKNRFQH | 0.529 ± 0.46 |
| CIVMG | inactive |
| CKHYVGLYKLTVWRFCGKNT | inactive |
| CKPDLMA | inactive |
| CLACFI | inactive |
| CLALSGIIIFELKAYLGSWC | 1.27 ± 0.12 |
| CLDPRGRNRAGPAVIGGPSV | inactive |
| CLFSGEGLARKCYSDNS | inactive |
| CLFSLLYPCGWINYSNSNMS | 0.437 ± 0.17 |
| CLGNENVELVSTNVVYRYIS | inactive |
| CLIFDLSRKKYWVKRDRKAW | 1.91 ± 0.062 |

| Substance | amyloid nucleation score |
| --- | --- |
| CLIYTTVFHSAG | 0.708 ± 0.13 |
| CLKFQSVY | inactive |
| CLKSA | -0.912 ± 0.93 |
| CLLNGDLHVEGWTLV | inactive |
| CLPPKS | inactive |
| CLRVLWLSQLTVSCDF | -0.354 ± 1.8 |
| CLSTFLGRSEKPL | inactive |
| CLTLMALAKGFGVWGG | -0.176 ± 0.92 |
| CLTLYRHQ | 0.313 ± 0.54 |
| CLWKG | inactive |
| CLYFY | 1.93 ± 0.1 |
| CLYPGRSWVTGAGITVWSLV | inactive |
| CMLAQRRVTPRRYRLVSSTI | inactive |
| CMLSDVIFYIVDDIRMFVGV | inactive |
| CMNWCVSRMVNTIVIWCMAY | inactive |
| CNHVSLTMILVRVLNMFF | 0.968 ± 0.23 |
| CNNRVVWLKHGSLSREDGVQ | inactive |
| CNSETRAFYYLALWVLFFFN | inactive |
| CNSVRLGFQWAKYVLWRHRG | inactive |
| CNWINLNIRSVRIYHPYSRF | 1.54 ± 0.072 |
| CNYPKFHWLGRSVIKFIDFL | inactive |
| CNYWCDVGLYGSKAFERSAT | inactive |
| CPGDPVESRCFPVLVNLRRG | inactive |

| Substance | amyloid nucleation score |
| --- | --- |
| CPNMPSSTGTKPSNVMVSFS | inactive |
| CPTIPMVGTF | inactive |
| CPVLGCMSTGEYHCFLTQTY | inactive |
| CQDHVKNITAIPHSSGMYMS | inactive |
| CQHGGCALQHHTYRCEVGAG | inactive |
| CQPSF | inactive |
| CQSKLKLSMLCRWFRCTIGK | inactive |
| CQSPDALVRWGR | -0.087 ± 0.93 |
| CQSVLCAKFLVSERH | inactive |
| CRCGSKNTTVRTLLNRGYSE | inactive |
| CRFWGFDSSINEVGLMQNHL | inactive |
| CRKLYNISFLVLLTFFSHLF | inactive |
| CRKTESAMRWK | inactive |
| CRLYEDIGISYMVATNQLEY | inactive |
| CRMAKRLAVRTSLRRMFSES | inactive |
| CRQVRFALLNFLAAG | inactive |
| CRQWCDWCTGSYPGYCFQC | inactive |
| CRRIYPFRP | -0.064 ± 0.66 |
| CRSLSLTSGIKF | inactive |
| CRWNVNNFPHLFITKMMFRY | inactive |
| CSCQMSRFMRTLVCVFT | inactive |
| CSEGLYGVSTVICCIISSVN | 2.2 ± 0.077 |
| CSEQEACISK | inactive |

| Substance | amyloid nucleation score |
| --- | --- |
| CSFRIMGDQMIGKTCCRFGH | inactive |
| CSFTARFLHTMSPKKFKLGN | inactive |
| CSGDD | inactive |
| CSGLCGFSQ | inactive |
| CSGYFDCIDTLKCNSS | inactive |
| CSGYVNGLVIQGKCAKDVVW | inactive |
| CSLTRFRWGYRTFEDNAPFH | 1.57 ± 0.075 |
| CSLWSMQGYLHEWRICCWRH | inactive |
| CSMFVAIIPRWSFEWPLRW | inactive |
| CSMSAIMYYSARFDV | inactive |
| CSPSFDVYPMV | inactive |
| CSRYFRWYHVLAYCSVPNRM | inactive |
| CSTFNFRGNTIHLNLCWEVI | 0.424 ± 0.71 |
| CSTIVWWEIAYKL | inactive |
| CTLGHCMKLSMSSFPAVGKV | inactive |
| CTLMIFGCN | inactive |
| CTVPMPDSVNVSAE | inactive |
| CVAECPLA | inactive |
| CVASGCTVKACFYSMREDRY | 1.53 ± 0.092 |
| CVATNYSYCSIFLHRA | 2.01 ± 0.079 |
| CVICSELLSSDCIIGDHRLR | 1.7 ± 0.1 |
| CVILYLTGKSFIVLSIVVAE | inactive |
| CVIPRQIYWWCYRSTGRLIL | inactive |

| Substance | amyloid nucleation score |
| --- | --- |
| CVLRAFATVKHFTSGLCSCG | inactive |
| CVNGTKEGTVRGSRARGRSF | inactive |
| CVSMKRN | 2.07 ± 0.067 |
| CVSNISSFGKLEFTYVIEVW | inactive |
| CVSYAISNGLRMEFSKENQY | 0.415 ± 0.14 |
| CVTINVIFDNVVY | 2.3 ± 0.061 |
| CVVIFICPQKG | 0.811 ± 0.26 |
| CVVPHPLSLPSD | inactive |
| CVWTSVLDVRYLYWCNVDVR | inactive |
| CWKQGLNRYLWW | 0.752 ± 0.13 |
| CWTMVASVTCYIVLLARWK | inactive |
| CYDTFGLFYCFLVWVWDLIV | inactive |
| CYEGR | inactive |
| CYELLESS | inactive |
| CYHAFRCSGLARACVENINW | inactive |
| CYLFVLL | inactive |
| CYLSSTGVVYAGYVYI | inactive |
| CYLVLFGAM | inactive |
| CYNAKCHFIGYDVAGNSGVW | inactive |
| CYNQRGCTIGILQFLPRPVW | inactive |
| CYRWL | inactive |
| DAAQCRSDNYALFELNSAHC | inactive |
| DADYLT | inactive |

| Substance | amyloid nucleation score |
| --- | --- |
| DAETPLHSFGMQLLGRASMR | inactive |
| DAKKVCFGIKEDCWR | inactive |
| DALVYVLGSCMWIGASSTSA | -0.354 ± 1.1 |
| DAPVVTVRAGNAGNHSMIPW | inactive |
| DCCGLVAYNLVFRICGACLG | inactive |
| DCESQQLSSSMWDTPQRWLT | inactive |
| DCFDFIEETGTNKAFRVWGI | 0.283 ± 0.24 |
| DCGSSCKSYPGKVVDNEMDE | inactive |
| DCGVVCSRNRNAEEEMLDSV | inactive |
| DCWHLRQLWGVMSCQ | 0.48 ± 0.42 |
| DDDEVASCLPYWRCAALKSG | inactive |
| DDFVG | inactive |
| DDRDSNSVTLDNSWSYSITV | inactive |
| DDRLCLGASENVWGFTVVRR | inactive |
| DECVYLFKNSYSVIILMFFK | inactive |
| DECYNVLRSVVYGMTSSTGW | inactive |
| DEFINLSFA | inactive |
| DEIACPYSAWLRMSMPEARS | inactive |
| DEMPRVSMRVNNMPGCDNDE | inactive |
| DFGMVLSNRFKTMKDCSYFC | 0.785 ± 0.23 |
| DFIDLLLSSDEIMKS | inactive |
| DFRHSMEASWKIWIRAGTRE | inactive |
| DFYIGTGLISKVRLGHRCSC | -0.305 ± 0.44 |

| Substance | amyloid nucleation score |
| --- | --- |
| DFYIIDSLIRMCMRICEFVL | inactive |
| DGARLCSAAMLAGQGLDEDG | inactive |
| DGAVFRFNMGHYKYSLVEVM | inactive |
| DGCGFIVTFVSAGVRSWLGI | 0.712 ± 0.29 |
| DGFLKLEFAFQCFTRLCLAF | inactive |
| DGPTRLNLFNSLFVSLKRMY | 1.58 ± 0.12 |
| DGRRSMATCWIHSNCPWRAS | inactive |
| DHAIM | 1.46 ± 0.14 |
| DHCGNFEDRWICVINNMRVS | inactive |
| DHCRNKQCVPTWDAYLEQ | -0.339 ± 0.52 |
| DHVGCATNRSDVDVTVFV | inactive |
| DHWLLQYERRCKLGGFGY | inactive |
| DICHWVEYFV | inactive |
| DICRFNWMFHF | 1.3 ± 0.11 |
| DIFCCWTDISDLF | inactive |
| DIFGSGYGYRGLSGRNYINM | inactive |
| DIPSVGQKRCSHGDRYNSAK | inactive |
| DIRCGFLHKQGPLTMRATEQ | inactive |
| DIRSGTLC | inactive |
| DISIPVLKRSFTCSMAYHC | inactive |
| DISSFGHFSMSFFNRIIKGA | inactive |
| DISSKY | inactive |
| DIVSLVNAFMISTIYTVTRK | inactive |
